Laboratory results: patent US20030017596A1

Target: Recombinant B19 parvovirus empty capsid particles (VP1/2) (B19 parvovirus) (UniProt P07299)
Test: cell-based or functional assay

“anti-B19 parvovirus monoclonal antibody (MAB8292)” gave a BFU-E colony counts (% of medium control), fetal liver cells; capsid 7 µg/ml + 0.02 µg/mL Mab (capsid only: 43%) (% of medium control) of 52, a BFU-E colony counts (% of medium control), fetal liver cells; capsid 7 µg/ml + 0.2 µg/mL Mab (capsid only: 43%) (% of medium control) of 52 and a BFU-E colony counts (% of medium control), fetal liver cells; capsid 7 µg/ml + 2.0 µg/mL Mab (capsid only: 43%) (% of medium control) of 69. For the same substance, the BFU-E colony counts (% of medium control), fetal liver cells; capsid 7 µg/ml + 20.0 µg/mL Mab (capsid only: 43%) (% of medium control) was > 100, the CFU-GEMM colony counts (% of medium control), fetal liver cells; capsid 7 µg/ml + 0.02 µg/mL Mab (capsid only: 21%) (% of medium control) was 21 and the CFU-GEMM colony counts (% of medium control), fetal liver cells; capsid 7 µg/ml + 0.2 µg/mL Mab (capsid only: 21%) (% of medium control) was 19. It also gave a CFU-GEMM colony counts (% of medium control), fetal liver cells; capsid 7 µg/ml + 2.0 µg/mL Mab (capsid only: 21%) (% of medium control) of 45, a CFU-GEMM colony counts (% of medium control), fetal liver cells; capsid 7 µg/ml + 20.0 µg/mL Mab (capsid only: 21%) (% of medium control) of 67 and a CFU-GM colony counts (% of medium control), fetal liver cells; capsid 7 µg/ml + 0.02 µg/mL Mab (capsid only: 30%) (% of medium control) of 30. For the same substance, the CFU-GM colony counts (% of medium control), fetal liver cells; capsid 7 µg/ml + 0.2 µg/mL Mab (capsid only: 30%) (% of medium control) was 21, the CFU-GM colony counts (% of medium control), fetal liver cells; capsid 7 µg/ml + 2.0 µg/mL Mab (capsid only: 30%) (% of medium control) was 35 and the CFU-GM colony counts (% of medium control), fetal liver cells; capsid 7 µg/ml + 20.0 µg/mL Mab (capsid only: 30%) (% of medium control) was 74.
